Patent US11591604B2, “Gene expression in Bacteroides” (Massachusetts Institute of Technology, priority 2015, dated 2023)
Read-outs that look alike come from different tables or passages of the source.

Tests used:
[1] = tested on: NanoLuc; assay: NanoLuc luciferase reporter expression from constitutive promoters and RBSs integrated with pNBU2; format: cell-based, B. thetaiotaomicron; settings: for Average Luminescence (RLU/CFU): RBS combined with promoter PBT1311, NanoLuc reporter, three biological replicates; for Expression Level (RLU/CFU): set of 8 RBSs, under control of PBT1311, NanoLuc reporter
[2] = tested on: B. thetaiotaomicron; assay: Minimum inhibitory concentration of polymyxin B with CRISPRi against BT1854; format: cell-based
Excerpt: FIGS. 4A-4F. CRISPRi-mediated repression of recombinant and endogenous genes. (FIG. 4A) Schematic of dCas9-based repression of NanoLuc. LacI^Q is expressed from PBT1311 and represses transcription from the PLacO23 promoter. Addition of IPTG inactivates LacI^Q to allow expression of dCas9 from PLacO23 dCas9 complexes with guide RNA (sgRNA) constitutively expressed from the P1 promoter to prevent the transcription of NanoLuc from the PcfiA promoter. Guide RNAs were designed to target the coding sequence of NanoLuc (NL1-4) or the PcfiA promoter (PR1-2). (FIG. 4B) Response curves of dCas9-mediated targeting the coding sequence of NanoLuc (NL1-4), the promoter (PR1-2) or a nonsense sequence (NS). Fourfold serial dilutions of IPTG starting at 500 μM or no inducer were added to cultures. Response curves were fit to a Hill Function (solid lines). (FIG. 4C) Fold repression elicited by various gRNAs in the presence (500 μM) of inducer. Bars are colored to correspond to part B. (FIG. 4D) Genomic location of endogenous genes targeted using CRISPRi. […]
Resistance to inflammation-associated cationic antimicrobial peptides, such as polymyxin B, is essential for the stability of commensal organisms in the dynamic gut environment. […] Using the minimum inhibitory concentration (MIC) of polymyxin B as a phenotypic readout, an sgRNA was designed to specifically suppress BT1854 expression.

[3] = tested on: NanoLuc; assay: Response curves of inducible promoters driving NanoLuc; format: cell-based, B. thetaiotaomicron; settings: for change in gene expression on induction: IPTG induction
Description: FIGS. 2A-2E. Design and characterization of genetic sensors. (FIGS. 2A-2D) Response curves for NanoLuc under the regulated control of the rhamnose—(Rha) (FIG. 2A), chondroitin sulfate—(ChS) (FIG. 2B), arabinogalactan—(AG) (FIG. 2C), or IPTG—(FIG. 2D) inducible promoters. LacO1 operator sites were inserted in various regions (O1, O2, O3) of the PcfxA promoter (see also FIGS. 7A-7B). Inducer concentrations were applied as follows: three-fold serial dilutions starting at 10 mM Rha (FIG. 2A); three-fold serial dilutions starting at 0.4% for ChS (FIG. 2B) and AG (FIG. 2C); and four-fold serial dilutions starting at 500 μM for IPTG (FIG. 2D). The leftmost data point in each plot represents the background luminescence in the absence of inducer. Response curves were fit to a Hill function (solid lines). (FIG. 2E) Orthogonality matrix of sugar-inducible genetic systems incubated with 10 mM rhamnose (Rha), 0.2% chondroitin sulfate (ChS), 0.2% arabinogalactan (AG), or 100 mM IPTG compared to no inducer. Error bars represent the standard deviation of three biological replicates made on different days.
FIGS. 7A-7B. Synthetic IPTG-inducible promoters. (FIG. 7A) Synthetic IPTG-inducible promoters were constructed by placing LacO1 operator sites (red) upstream of the −33 element (O1), between the −33 and −7 elements (O2) and/or directly downstream of the transcription start site (O3) of the strong PcfxA promoter. Predicted −33, −7 and +1 sites are shown in bold. These promoters are regulated by the E. coli LacIQ repressor expressed from PBT1311. FIG. 7A depicts SEQ ID NOs: 217 to 220 from top to bottom, respectively. (FIG. 7B) Response curves for the synthetic IPTG-inducible systems. Cells were incubated with no inducer or four-fold serial dilutions of IPTG starting at 500 μM. Data sets for PLacO13 and PLacO23 were fit to a Hill function (solid line). Error bars represent the standard deviation of three biological replicates made on three different days (n=3).
To create inducible systems for use in B. thetaiotaomicron, parts from a large repertoire of systems that govern carbohydrate utilization were used, which included cytoplasmic transcription factors, extracytoplasmic function sigma/anti-sigma pairs, and hybrid two-component systems (HTCS), among others (64). In B. thetaiotaomicron, rhamnose metabolism is mediated by the AraC/XylS-family transcriptional activator, RhaR, which activates transcription at the PBT3763 promoter (Patel E H, et al. Res. Microbiol. 159:678-84, 2008). To assay the functionality of PBT3763 as an inducible system, 250 bp of the promoter-RBS region was cloned upstream of the start codon of BT3763 into the pNBU2 expression vector to drive expression of NanoLuc.
Two-component systems are signal-transduction mechanisms widespread in bacteria for sensing external stimuli. […] Putative HTCSs, BT3334 and BT0267, were identified in transcriptomic studies to control expression of the chondroitin sulfate (ChS)-inducible PBT3324 promoter and arabinogalactan (AG)-inducible PBT0268 promoter, respectively (64, 83). The promoter regions upstream of the BT3324 and BT0268 genes were used as the basis for two polysaccharide sensors. Chondroitin sulfate induction of PBT3324 and arabinogalactan induction PBT0268 led to a 60-fold and 29-fold regulation of output gene expression, respectively (FIGS. 2B and 2C).
Next, an IPTG-inducible system was developed. Pairs of LacO1 operator sites were inserted in the strong PcfxA promoter in three locations: upstream of the −33 element (O1), between the −33 and −7 elements (O2) or just downstream of the transcription start site (O3) (FIGS. 7A-7B). The LacI^Q repressor was expressed from the strong BT1311 promoter to achieve tight control of NanoLuc expression. Compared to the unmodified PcfxA promoter, the addition of synthetic operator sites diminished the maximum expression of NanoLuc (FIGS. 7A-7B). […]

[4] = tested on: NanoLuc; assay: Luciferase activity in fecal pellets of mice colonized with arabinogalactan-inducible P0268 strain; format: in vivo, Swiss Webster mice
Description: FIGS. 5A-5D. In vivo function of genetic parts within B. thetaiotaomicron colonizing the mouse gut. (FIG. 5A) Experimental timeline. Specific pathogen free (SPF) Swiss Webster mice were treated for 10 days with ciprofloxacin and metronidazole and gavaged with B. thetaiotaomicron 2 days after cessation of treatment. […] Mice were provided drinking water supplemented with 5% arabinogalactan (FIG. 5B: solid line), or 25 mM IPTG (FIG. 5C: solid line) after stool collection on Day 2 (grey box), or were maintained on normal drinking water throughout the entire experiment (dashed lines). Inducer water was removed on Day 4 after stool collection. Grey boxes indicate the period of time that mice were exposed to inducer-supplemented drinking water. Luminescence values were normalized to cell density as determined by qPCR using NanoLuc-specific primers. (FIG. 5D) SPF mice were colonized with B. thetaiotaomicron containing the rhamnose-inducible integrase construct P3763-rpiL*C51-Int12. […] Absolute quantities of flipped and unflipped memory array in fecal DNA were determined by qPCR using standard curves (Experimental Procedures). Recombination frequency is expressed as the ratio of cells containing a flipped memory array (Flipped) divided by the sum total of cells containing a flipped or unflipped array (Total). […]

[5] = IPTG inducer, LacIQ expressed from BT1311 promoter, read-out: threshold K

Molecule: C55: RBS, SEQ ID NO: 142 (DNA TCCCGCATTTTAAAATAAAATAAATTATTCGTTTACTTAAACGAAT; chemistry not fully specified)
- Average Luminescence (RLU/CFU) [1]: 2.628E-05 RLU/CFU

Molecule: C56: RBS, SEQ ID NO: 143 (DNA TCCCGCATTTTAAAATAAAATAAATTATTCGTTTAGTTAAACGAAT; chemistry not fully specified)
- Average Luminescence (RLU/CFU) [1]: 2.2125E-05 RLU/CFU
- Expression Level (RLU/CFU) [1]: 2.21E-05 RLU/CFU

Molecule: polymyxin B
- decrease in MIC compared to WT and dCas9NS control ([2]; dCas9BT1854 cells, dCas9 induced with IPTG): 8 to 16 fold
- polymyxin B resistance ([2]; dCas9NS strains, presence or absence of IPTG induction, similar to WT): high levels of polymyxin B resistance

Molecule: rpiL*-C39: RBS, SEQ ID NO: 176; sequence and value match B39 of Table 1 (DNA TCCCGCATTTTAAAATAAAATAAATCATCTAGTTAATTAAACGAATATG; chemistry not fully specified)
- Expression Level (RLU/CFU) [1]: 1.26E-03 RLU/CFU

Molecule: rpiL*: parent ribosomal protein RBS, SEQ ID NO: 39, 172, 174 (DNA TCCCGCATTTTAAAATAAAATAAATTATTTATTTAATTAAACGAAT; chemistry not fully specified)
- Average Luminescence (RLU/CFU) [1]: 0.02133 RLU/CFU
- Expression Level (RLU/CFU) [1]: 2.13E-02 RLU/CFU

B1: PBT3763: Rhamnose inducible promoter + RBS, SEQ ID NO: 144 (nucleic acid)
DNA: TATTTCGGAGAAAACATGCATAAATCATGCTTTTTTTGCATAAAAAGTAAAATTTATACTGATGTAAGGTTTGGCTATGCAGATTTGTGTCAAAATGCACATCCTTTCTATCAAAATGCGTAAGGAAAAGGAGGAAGGAACCGCCTATCTTTGCAATGTAGGTAAATGGATACCTTAAATATATAGACAAAATACC
- Hill coefficient n ([3]; rhamnose inducer): 1.4
- EC50 ([3]; rhamnose inducer, read-out: threshold K (Hill function fit)): 300 µM
- output dynamic range ([3]; rhamnose induction, NanoLuc): 104 fold

B2: PBT3324: Chondroitin-sulfate inducible promoter + RBS, SEQ ID NO: 145 (nucleic acid)
DNA: TATTTATAAGAGATAGCACATAATTTGAACTATTTTGTACGATTTGAACCCCTCTTTCCAACAAAAGAGGGGTTTCTTTGCATTCGGGAGAAGAACAAGTGATCTCTCTCTGTAAATACCGGCTAATGATAAACCGATTTACCATCGGACCTAAAACGATATATTCTATGATAAAGCAATCTTTTACTCTGTCAGTGACA
- regulation of output gene expression ([3]; chondroitin sulfate induction): 60 fold

B3: PBT0268: Arabinogalactan inducible promoter + RBS, SEQ ID NO: 146 (nucleic acid)
DNA: TAAAATACACAAGTACGCGTCTTAATGGAAGATGCGTACTTTTCCATATATCAATGATCTATCCCATTTGAATGATTCCTGAACTTATATTGAACGATTTTTAGACCTGTTATAGTTAATAGCGATTATGGTCCAATTTTGGAAGTTTTTGAATGATTAGAGAACTTCTTTCTACTGGATAACTCGCACTTTTGTGACGCATTTGATGCACAACTAATACTTATTTGGTCTAAATAACTTTATAAATCTAATAGT
- regulation of output gene expression ([3]; arabinogalactan induction): 29 fold
- luciferase activity after removal of inducer from drinking water ([4]; fecal pellets): rapidly returned to baseline
- increase of luciferase activity in fecal pellets ([4]; within a day of arabinogalactan in drinking water): approximately 75 fold

B4: PLacO13: Synthetic IPTG-inducible promoter + RBS, SEQ ID NO: 148 (nucleic acid)
DNA: TTACAAAGAAAATTCGACAAACTGTTATTTTTCTATCTATTTAAATTGTGAGCGGATAACAATTTGGGTGGGAAACTTTAGTTATGTACCTTTGTCGGCAATTGTGAGCGGATAACAATTAAATAAAGATATTCTCGTCAAACAAATATAAATAATATAAAC
- EC50 [3, 5]: 86 µM
- change in gene expression on induction [3]: 8 fold

B5: PLacO23: Synthetic IPTG-inducible promoter + RBS, SEQ ID NO: 149 (nucleic acid)
DNA: TTACAAAGAAAATTCGACAAACTGTTATTTTTCTATCTATTTATTTGAATTGTGAGCGGATAACAATTACCTTTGTCGGCAATTGTGAGCGGATAACAATTAAATAAAGATATTCTCGTCAAACAAATATAAATAATATAAAC
- EC50 [3, 5]: 6 µM
- change in gene expression on induction [3]: 22 fold
